Assay results: patent US12241094B2, “Phenazine degrading agents and related compositions, methods and systems for interfering with viability of bacteria” (priority 2016, dated 2025)
Entries after “also recorded” stand apart in the source; their conditions may differ.

How the values were obtained:
[1] = tested on: P. aeruginosa biofilm aggregates; experiment: Biofilm aggregates embedded in agar blocks (anoxic fitness); format: cell-based; details: 22 hours growth then 5 hour treatment, 2 μg mL^−1; ~300 μm and deeper below agar surface
Description: Biofilm aggregate experiments. To test the effect of oxygen limitation in the presence of PodA30-162, biofilm aggregates were grown embedded in 0.5% noble agar blocks containing succinate minimal medium. Cultures were grown overnight to stationary phase in LB, washed once with succinate minimal medium, and resuspended to OD600 1.0. Samples were diluted 1:100 in agar at 44° C. and 175 μL was transferred to Nunc Lab-Tek chambered coverglass slides (8-well, 0.7 cm^2 area, supplier #155409). […] SYTO-9 from the LIVE/DEAD stain kit was used in place of DAPI to minimize background fluorescence. […] Biomass was quantified in ImageJ software (60) by identifying the Z-slice with the highest average fluorescent intensity (generally […] the agar surface), and setting the pixel threshold using the default ImageJ thresholding parameters at the Z-slice equivalent to the 100 μm depth. The number of particles in each slice of the Z-stack was determined using this threshold value and counting particles >10 μm^2 in area. […] Particle numbers for each slice were averaged between independent experiments and plotted against depth to quantify biofilm aggregates. […]
Oxygen diffusion modeling. […] Given these values, average cell number per mL was estimated by dividing the volume of total detected biofilm aggregates by the average volume of a P. aeruginosa cell (62) yielding a cell density estimate of 5×10^8. […]

P. aeruginosa biofilm = experiment: Optical density of P. aeruginosa biofilm; format: cell-based; details: PodA vs inactive E154A; 1-OH-PHZ vs 1% DMSO
[2] = tested on: Pa PA14 biofilm transcriptome; experiment: RNASeq transcriptome of biofilm cultures; format: cell-based, P. aeruginosa; details: 5 h
Description: Because 1-OH-PHZ induces iron starvation in A. fumigatus (Briard et al. (2015) Scientific Reports. 2015; 5), it was speculated that the abrogation of biofilm development in P. aeruginosa grown in the presence of either PodA or 1-OH-PHZox may be mediated by a response to Fe-limitation. To test this idea, changes to the transcriptome of Pa PA14 by RNASeq were assessed. After 5 h of incubation in the presence of PodA (1 μM), 1-OH-PHZ (200 μM) or PYO (200 μM), RNA was prepared from 1 ml of biofilm cultures (250 μl pooled from 4 static biofilm chambers) for analysis on an Illumina HiSeq 2500 sequencer at the Millard and Muriel Jacobs Genetics and Genomics Laboratory, as previously described (Babin et al. (2016) Proc Natl Acad Sci USA. 113(5):E597-E605; Kreamer et al. (2015) M Bio. 2015; 6(2):e02549. Epub 2015/02/26). This experiment was designed to identify genes that were likely to be specifically affected by PodA's transformation of PYO to 1-OH-PHZ under a condition that inhibited biofilm formation (FIG. 20A). As a reference for genes responsive to iron availability, these transcriptomes were compared to those previously found to respond to Fe(II) shock (Kreamer et al. (2015) M Bio. 2015; 6(2):e02549. Epub 2015/02/26).

B1: PodA30-162: truncated pyocyanin demethylase encoded by MFORT_14352 of Mycobacterium fortuitum lacking N-terminal helix, SEQ ID NO: 2 (protein, listed as Mycobacterium fortuitum)
chain: MDGRGGRSTTEPVTMTLDVKNDQVAKHDFGKPGMDVGDMDIFSDILSVDGKQVGYDGGACFFTNVTPDNPMTYCELTIHLDAGEIFARSLTPHTLAPFTMAITGGTGEYANSKGELTVSGVATPDEKYELKLTKAENLYFQ
detectable biofilm aggregates at anoxic depths [1]: sharper decline in detectable aggregates; also recorded: apparent biomass defect specifically at anoxic depths | optical density of biofilm (P. aeruginosa biofilm): significantly decreased | expression of small gene cluster incl. QapR regulon [2]: upregulated modestly | log(2) changes relative to untreated control, metal scavenging and starvation response genes (FIG. 21A) ([2]; PodA 1 μM, 1-OH-PHZ 200 μM, PYO 200 μM): ~0 log(2)
